Reference: US11447534B2, “Peptide complex with immunodulatory and anti-inflammatory function” (NATIONAL INSTITUTE OF IMMUNOLOGY, priority 2018, dated 2022)

Assays:
Abeta42 = molecular target: T1, Abeta42 (Homo sapiens, UniProt P05067); assay: Abeta42 fibrillization in situ (TEM, Thioflavin T binding assay); assay type: biochemical; settings: Abeta42 100 μM + Glu-OC 3 ng vs Abeta42 control, 8th hour
T1 construct: of Abeta 1-42 peptide; Molecular weight = 4514.1; purchased r-peptide
Protocol: For this study, different concentrations of Glu-OC viz. […] After keeping the samples for 5 minutes, the excess was washed off with ultrapure water and surplus sample and water were wicked away using absorbent paper. The samples were negatively stained using 1% uranyl acetate stain, dried and analyzed in a transmission electron microscope CM10 Philips operated at 80 kV. […] ThT assay measures the changes in fluorescence intensity of ThT upon binding to amyloid fibrils. […] The resulting ThT fluorescence intensities of samples were measured at an emission wavelength of 480 nm and excitation wavelength of 440 nm and 5 nm slit width using a Jobin Vyon Horiba Fluoromax-4 spectrofluorimeter. The inner filter effect was taken into account using the Equation: Fc=F×anti log[(Aex+Aem)/2] where Fc is the corrected flourescence and F is apparent fluorescence, Aex and Aem are the absorbances of the samples at excitation and emission wavelengths respectively.

CD36 scavenger receptor = assay: Flow cytometry of cell surface CD36 in macrophages; assay type: cell-based, murine; settings: 1 hour exposure, FACS
Protocol: To determine the immunomodulatory effect of A-O complex, serum starved macrophages were exposed to the complex. Macrophages (1×10^6 cells) were serum starved for 30 min after which cells were exposed to A-O complex. After 1 hour, cells were washed with 1×PBS (pH 7.4) and harvested using cell dissociation solution. Then the cells were suspended in ice cold staining buffer (100 μl) and centrifuged at 1000 rpm for 5 min at 4° C. The cells were resuspended in 100 μl ice cold staining buffer for 10 min at 2-8° C. and pellet resuspended in 50 μl staining media. To this 2 μl of Fc block or anti-mouse CD16/CD32 was added for 10 mins and washed with staining buffer. The cells were resuspended in 50 μl of staining buffer and incubated with fluorescent-tagged CD36 antibody (e-biosciences) for 25-30 min on ice. The excess stain was removed by washing and pelleting down using staining buffer thrice by spinning and removal of staining buffer. The cell suspension was fixed 1:1 ratio (staining buffer:fixative) and analysed within 48 h in ARIA3 DIVA software version 6.1. Further, expression of MHC-II, and CD-36, was also determined in the microglial cells via qPCR. […] Following amplification, fold changes in gene expression versus β-actin (reference) analysis was determined using the 2^ΔΔCT(Livak) method.

RAW264.7 macrophages = assay: Lactate dehydrogenase (LDH) assay in macrophages; assay type: cell-based, murine
Protocol: Effect of Abeta-Glu-OC (3 ng) mixture on macrophage integrity: To determine whether the mixture produced any toxicity lactate dehydrogenase (LDH) assay was performed. Briefly, the cells were incubated with the mixture under serum starved conditions for 1 hour followed by LDH assay. LDH was assayed using In vitro toxicology assay kit from Sigma-Aldrich, St. Louis, Mo., USA (cat. no.-TOX7) as per the manufacturer's directions. LDH assay substrate solution, LDH assay dye solution and 1×LDH assay cofactor were provided with the kit. […] To this LDH assay mixture was added and incubated at room temperature in the dark for 20-30 min. The reaction was terminated by the addition of 1/10 volume of 1N HCl. Absorption was taken 490 nm with the help of in a Tecan Microplate reader, Switzerland with Magellan™ software.

T1 sequence (P05067 672-713): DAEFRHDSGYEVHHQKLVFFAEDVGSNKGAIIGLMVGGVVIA

A-O complex: peptide complex of 100 μM Abeta1-42 (SEQ ID NO: 1) and 3 ng Glu-OC (SEQ ID NO: 2), incubated at 37° C. for 4 hours
ThT fluorescence emission (Abeta42): high enhancement of fluorescence emission of ThT | cell surface protein expression of CD36 receptor (CD36 scavenger receptor): increased cell surface protein expression | intracellular LDH (RAW264.7 macrophages): did not show any rise in intracellular LDH
